Residue numbers refer to the chain shown, from its start. In names and notes the source's numbering stands. Several values for one entry are separate records, joined by “and”; a condition that tells them apart may be missing. Equal entries are not always repeated.
B1: lamin 250–400 fragment (F3), without His tag (domain or fragment, human, UniProt P02545 250-400, looked up)
chain: AQHEDQVEQYKKELEKTYSAKLDNARQSAERNSNLVGAAHEELQQSRIRIDSLSAQLSQLQKQLAAKEAKLRDLEDSLARERDTSRRLLAEKEREMAEMRARMQQQLDEYQELLDIKLALDMEIHAYRKLLEGEEERLRLSPSPTSQRSRG
notes: lamin A/C, human, residues 250-400 (coil 2, residues 240-385, without its N-terminal ten residues); not called His-tagged there, so by the common procedure the tag would be cleaved; also called coil 2 fragment; C-terminal part of coil 2; source: E. coli BL21 (DE3), purified (Ni-NTA, TEV, HiTrap Q, SEC)
B2: His-F3 (His-tagged lamin A/C residues 250–400) (domain or fragment, human, UniProt P02545 250-400, looked up)
chain: B1 chain
notes: lamin A/C, human, residues 250-400; The plasmid also encodes a TEV site between the tag and the lamin residues (pProEx-HTa); also called his-tagged 250–400 fragment; coil 2 fragment; source: E. coli BL21 (DE3), purified (Ni-NTA, HiTrap Q, SEC; no TEV treatment); not shown: His tag, N-terminal, kept
B3: selenomethionine-labelled lamin A/C fragment (residues 1–300), His tag cleaved (domain or fragment, human, UniProt P02545 1-300, looked up)
chain: METPSQRRATRSGAQASSTPLSPTRITRLQEKEDLQELNDRLAVYIDRVRSLETENAGLRLRITESEEVVSREVSGIKAAYEAELGDARKTLDSVAKERARLQLELSKVREEFKELKARNTKKEGDLIAAQARLKDLEALLNSKEAALSTALSEKRTLEGELHDLRGQVAKLEAALGEAKKQLQDEMLRRVDAENRLQTMKEELDFQKNIYSEELRETKRRHETRLVEIDNGKQREFESRLADALQELRAQHEDQVEQYKKELEKTYSAKLDNARQSAERNSNLVGAAHEELQQSRIRID
modifications: selenomethionine-labelled
notes: lamin A/C, human, residues 1-300 (head, coil 1a, L1, coil 1b, L12, first half of coil 2); Four protomers (chains A-D) in the asymmetric unit: two parallel coiled-coil dimers (A:B, C:D) packed anti-parallel; also called lamin 300 fragment; N-terminal half fragment of human lamin A/C; source: E. coli B834 (DE3), M9 medium with L-(+)-selenomethionine, purified (Ni-NTA, TEV, HiTrap Q, SEC); not …
B4: lamin 300 fragment, wild type (human lamin A/C residues 1–300), His tag cleaved (domain or fragment, UniProt P02545 1-300, looked up)
chain: B3 chain
notes: lamin A/C, human, residues 1-300; Mostly a dimer by SEC-MALS; also called WT; lamin 1–300 fragment; source: E. coli BL21 (DE3), purified (Ni-NTA, TEV, HiTrap Q, SEC); not shown: His tag, N-terminal, cleaved
B5: lamin 300 fragment A146C mutant (human lamin A/C residues 1–300), His tag cleaved (domain or fragment, UniProt P02545 1-300, looked up)
chain: B3 chain with A146C
modifications: disulfide bond through Cys146 in the non-reduced protein
notes: lamin A/C, human, residues 1-300; Non-reduced: partly a disulfide-linked tetramer; with TCEP: dimer (A146C^R); also called lamin 300 A146C; A146C variant; source: E. coli BL21 (DE3), purified (Ni-NTA, TEV, HiTrap Q, SEC); not shown: His tag, N-terminal, cleaved
B6: lamin 286–400 R388C mutant (domain or fragment, human, UniProt P02545 286-400, looked up)
chain: GAAHEELQQSRIRIDSLSAQLSQLQKQLAAKEAKLRDLEDSLARERDTSRRLLAEKEREMAEMRARMQQQLDEYQELLDIKLALDMEIHAYRKLLEGEEERLCLSPSPTSQRSRG
notes: lamin A/C, human, residues 286-400; runs at 14 kDa on SDS-PAGE; Reduced with 2 mM DTT and desalted before cross-linking; also called coil 2 (286–400) R388C; coil 2 R388C; source: E. coli BL21 (DE3), purified

Columns and labels:
[1] = target: B5; assay: pull-down; lamin 300 A146C coupled to CNBr-activated Sepharose; fragments at 66 μM; 20 mM Tris-HCl pH 8.0, 150 mM NaCl, non-reducing; Tris-blocked resin as control; SDS-PAGE; settings: both partners purified
[2] = target: T1, His-tagged lamin 300 fragment, wild type (human lamin A/C residues 1–300) (human, UniProt P02545 1-300); assay: pull-down; His-tagged lamin 300 (wild type, Y45C, L59R) on Ni-NTA resin; lamin 250-400 as prey; 20 mM Tris-HCl pH 8.0 with 50 or 150 mM NaCl; SDS-PAGE; settings: both partners purified
T1 construct: lamin A/C, human, residues 1-300; The plasmid also encodes a TEV site between the tag and the lamin residues (pProEx-HTa); also called His-lamin; His-tagged wild-type lamin 300 fragment; source: E. coli BL21 (DE3), purified (Ni-NTA, HiTrap Q, SEC; no TEV treatment); not shown: His tag, N-terminal, kept
T1 sequence (looked up): B3 chain

[3] = target: T1, His-tagged lamin 300 fragment, wild …; assay: ITC; His-lamin 300 (20 μM) in the cell, His-250-400 (160 μM) in the syringe; PBS, 25 °C, 19 injections of 2 μL; settings: both partners purified
[4] = target: T2, His-tagged lamin 300 fragment L59R mutant (human, UniProt P02545 1-300, L59R); assay: as above; settings: both partners purified
T2 construct: lamin A/C, human, residues 1-300, with the dilated cardiomyopathy mutation L59R; source: E. coli BL21 (DE3), purified (Ni-NTA, HiTrap Q, SEC; no TEV treatment)
T2 sequence (looked up): B3 chain with L59R

[5] = target: B4; assay: pull-down; His-F3 on Ni-NTA resin as bait; tag-cleaved lamin 300 proteins as prey; 20 mM Tris-HCl pH 8.0 with 150 or 50 mM NaCl, room temperature 30 min, wash with 20 mM imidazole; 2 mM TCEP for reduced A146C; SDS-PAGE; settings: both partners purified
[6] = target: B5; assay: as above; settings: both partners purified
[7] = target: the molecule itself; assay: crystal structure; SeMet-labelled lamin 1-300, His tag cleaved, 7 mg/mL; 0.1 M Tris-HCl pH 8.5, 0.9 M LiCl, 7% PEG 8000, 14 °C; SAD, 3.2 Å
[8] = target: the molecule itself; assay: SEC-MALS; 2.5 mg/ml, Superdex 200 Increase 5/150 GL, non-reducing buffer Tris-HCl pH 8.0, 150 mM NaCl
[9] = target: the molecule itself; assay: cross-linking; sulfo-SMPB (0-250 μM) added to 20 μM lamin 300 and 286-400 R388C, 1 h, 20 mM HEPES pH 7.5, 50 mM NaCl, 1 mM EDTA; SDS-PAGE bands digested with chymotrypsin, MS/MS
[10] = target: B4; assay: as above; settings: both partners purified

B1
binding result [1]: binds
binding result [2]: binds

B2
binding result [3]: binds
fold higher binding affinity than the wild type (from KD values) [4]: ~40 fold
binding result [5]: binds
binding result [6]: binds

B3
binding result [7]: binds

B4
stoichiometry N [8]: 2

B5
stoichiometry N [8]: 4 and 2

B6
binding result [9]: binds
binding result [10]: binds

Source: PMC6704074, “Structural basis for lamin assembly at the molecular level” (Nature Communications, 2019)
